The record followed here is patent US20260209350A1 (Alector, published 2026).

Experiment [1] deals with T1, human monomeric His tagged TREM2 protein (human, UniProt Q9NZC2 19-174).
T1 construct: also called hTREM2-HIS
T1 sequence: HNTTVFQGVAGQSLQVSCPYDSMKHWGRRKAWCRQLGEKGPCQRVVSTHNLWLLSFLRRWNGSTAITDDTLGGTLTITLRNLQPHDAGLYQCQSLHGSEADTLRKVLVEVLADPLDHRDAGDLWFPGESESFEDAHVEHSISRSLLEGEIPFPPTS
Kind of experiment: ForteBio or MSD-SET, monovalent. (In BLI a coated tip is dipped into the sample, and binding shifts an interference pattern.)
Method: The binding affinity of each anti-TREM2 antibody was determined by measuring their KD by ForteBio or MSD-SET. […] Briefly, ForteBio affinity measurements were performed by loading IgGs on-line onto AHQ sensors. Sensors were equilibrated off-line in assay buffer for 30 min and then monitored on-line for 60 seconds for baseline establishment. Sensors with loaded IgGs were exposed to 100 nM antigen for 5 minutes, then transferred to assay buffer for 5 min for off-rate measurement. Kinetics were analyzed using the 1:1 binding model.
Solution equilibrium titrations (SET) were performed in PBS+0.1% IgG-Free BSA (PBSF) with antigen held constant at 50 pM and incubated with 3- to 5-fold serial dilutions of antibody starting at 10 nM. Antibodies (20 nM in PBS) were coated onto standard bind MSD-ECL plates overnight at 4° C. or at room temperature for 30 min. Plates were then blocked for 30 min with shaking at 700 rpm, followed by three washes with wash buffer (PBSF+0.05% Tween 20). SET samples were applied and incubated on the plates for 150s with shaking at 700 rpm followed by one wash. Antigen captured on a plate was detected with 250 ng/mL sulfotag-labeled streptavidin in PBSF by incubation on the plate for 3 min. The plates were washed three times with wash buffer and then read on the MSD Sector Imager 2400 instrument using 1×Read Buffer T with surfactant. The percent free antigen was plotted as a function of titrated antibody in Prism and fit to a quadratic equation to extract the KD. To improve throughput, liquid handling robots were used throughout MSD-SET experiments, including SET sample preparation.

The target in experiment [2] is T2, human TREM2 on primary human cells (human, UniProt Q9NZC2 19-230).
T2 sequence: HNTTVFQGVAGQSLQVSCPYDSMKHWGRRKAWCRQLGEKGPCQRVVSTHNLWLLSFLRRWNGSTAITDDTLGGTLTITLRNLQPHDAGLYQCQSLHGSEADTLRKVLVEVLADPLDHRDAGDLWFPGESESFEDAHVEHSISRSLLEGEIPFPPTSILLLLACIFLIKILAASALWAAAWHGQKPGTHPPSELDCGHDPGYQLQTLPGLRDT
The experiment in a line: cell-based or functional assay.

Experiment [3] addresses T3, mouse TREM2 Fc fusion protein (mouse, UniProt Q99NH8 19-171).
T3 construct: also called mTREM2-Fc; not shown: Fc part not specified
T3 sequence (looked up): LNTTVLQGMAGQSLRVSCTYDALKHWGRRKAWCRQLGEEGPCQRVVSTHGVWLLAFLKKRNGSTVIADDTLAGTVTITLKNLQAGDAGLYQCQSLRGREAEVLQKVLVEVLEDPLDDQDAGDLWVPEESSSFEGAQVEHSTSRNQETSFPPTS
Kind of experiment: ForteBio or MSD-SET, avid.

In experiment [4] the target is T4, human TREM2 Fc fusion protein (human, UniProt Q9NZC2 19-174).
T4 construct: also called hTREM2-Fc; not shown: Fc part not specified
T4 sequence: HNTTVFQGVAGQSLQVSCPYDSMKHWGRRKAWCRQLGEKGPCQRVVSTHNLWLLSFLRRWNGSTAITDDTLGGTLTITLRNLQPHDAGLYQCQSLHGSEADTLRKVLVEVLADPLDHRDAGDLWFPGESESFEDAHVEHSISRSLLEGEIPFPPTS
Kind of experiment: ForteBio or MSD-SET, avid.

Experiment [5] deals with T5, mouse TREM2 on cells (mouse, UniProt Q99NH8 19-227).
T5 construct: whole, on cells; Used for the recombinant protein on BWZ/BW cells (with mouse DAP12) and for the native protein on mouse macrophages and dendritic cells; the cell type stands under assay; also called mTREM2; mTrem2
T5 sequence (looked up): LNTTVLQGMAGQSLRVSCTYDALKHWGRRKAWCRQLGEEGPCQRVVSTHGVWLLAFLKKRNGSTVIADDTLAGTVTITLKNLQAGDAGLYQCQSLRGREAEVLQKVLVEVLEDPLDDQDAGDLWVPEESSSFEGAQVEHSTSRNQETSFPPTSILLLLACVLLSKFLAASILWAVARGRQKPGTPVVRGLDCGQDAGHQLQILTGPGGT
The experiment in a line: FACS, WT mouse dendritic cells. Background: A flow cytometer gives signals particle by particle.
Method: (§1) Cells were harvested, plated at 10⁵/ml in a 96 well plate, washed, and incubated in 100 ul PBS containing 10-50 ug/ml Mab and Fc blocking reagent for 1 hour in ice. Cells were then washed twice and incubated in 100 ul PBS containing 5 ug/ml PE-conjugated secondary antibody for 30 minutes in ice. Cells were washed twice in cold PBS and acquired on a BD FACS Canto. Data analysis and calculation of MFI values was performed with FlowJo (TreeStar) software version 10.0.7.

Experiment [6] addresses T2, human TREM2 on primary human cells. The experiment in a line: FACS, primary human dendritic cells.
The target in experiment [7] is T5, mouse TREM2 on cells. The experiment in a line: FACS, WT mouse macrophages.
Method: as §1
For experiment [8], the target named is T5, mouse TREM2 on cells. Kind of experiment: FACS, BWZ T2 cells.

B1: Ab14 (antibody, human IgG1, V domains shown)
VH: QVQLQESGPGLVKPSQTLSLTCTVSGGSISSGGYYWSWIRQHPGKGLEWIGNIYYSGSTVYNPSLKSRVTISVDTSKNQFSLKLSSVTAADTAVYYCARGLYGYGVLDVWGQGTMVTVSS
VL: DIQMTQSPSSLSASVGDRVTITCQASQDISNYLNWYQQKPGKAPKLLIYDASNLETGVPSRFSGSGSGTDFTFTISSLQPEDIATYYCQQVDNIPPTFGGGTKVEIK
notes: human IgG1
Consider B1, for which the Kd (commonly the constant that tells how readily two partners part at equilibrium) in experiment [1] came out at 3.19 nM; in experiment [3], 0.62 nM; in experiment [4], 0.551 nM. Besides, the “Induction of CD86 & CD83 Human hDC plate (% CD83+CD86+ cells)” value in experiment [2] was 78.7%. For the same molecule, the “Induction of CD86 & CD83 hDC solution (% CD83+CD86+ cells)” value in experiment [2] came to 1.9%. Further, the MFI turned out to be 529 MFI in the experiment with mouse TREM2 on cells [5], 145 MFI in the experiment with mouse TREM2 on cells [7] and 11600 MFI with mouse TREM2 on cells [8]. Besides, in experiment [6], the hDC % positive turned out to be 75.8%.

B2: Ab1 (antibody, human IgG1, V domains shown)
VH: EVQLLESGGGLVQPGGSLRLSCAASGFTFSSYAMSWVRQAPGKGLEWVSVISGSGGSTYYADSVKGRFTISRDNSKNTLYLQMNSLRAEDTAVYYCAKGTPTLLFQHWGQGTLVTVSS
VL: EIVMTQSPATLSVSPGERATLSCRASQSVSSNLAWYQQKPGQAPRLLIYGASTRATGIPARFSGSGSGTEFTLTISSLQSEDFAVYYCQQLPYWPPTFGGGTKVEIK
notes: human IgG1
For the molecule B2, the Kd in experiment [1] came to 6.67 nM; in experiment [3] it was 4.86 nM; in experiment [4], 0.705 nM. Further, in experiment [2], the “Induction of CD86 & CD83 Human hDC plate (% CD83+CD86+ cells)” value was 87.2%. The “Induction of CD86 & CD83 hDC solution (% CD83+CD86+ cells)” value in experiment [2] is 3%. The MFI worked out at 393 MFI with mouse TREM2 on cells [5], 82.3 MFI with mouse TREM2 on cells [7] and 12600 MFI with mouse TREM2 on cells [8]. Moreover, the hDC % positive in experiment [6] came to 64.9%.

B3: Ab9 (antibody, human IgG1, V domains shown)
VH: EVQLVQSGAEVKKPGESLKISCKGSGYSFTSYWIGWVRQMPGKGLEWMGIIYPGDSDTTYSPSFQGQVTISADKSISTAYLQWSSLKASDTAMYYCARLHISGEVNWFDPWGQGTLVTVSS
VL: EIVLTQSPATLSLSPGERATLSCRASQSVSSYLAWYQQKPGQAPRLLIYDASNRATGIPARFSGSGSGTDFTLTISSLEPEDFAVYYCQQFSYWPWTFGGGTKVEIK
notes: human IgG1
Regarding B3, the figures for the Kd in experiment [1] and in experiment [4] were 6.32 nM and 0.348 nM, respectively. Besides, the “Induction of CD86 & CD83 Human hDC plate (% CD83+CD86+ cells)” value in experiment [2] is 79.3%. The “Induction of CD86 & CD83 hDC solution (% CD83+CD86+ cells)” value in experiment [2] was found to be 5.6%. Moreover, the values for the MFI with mouse TREM2 on cells [5], with mouse TREM2 on cells [7] and with mouse TREM2 on cells [8] were 538 MFI, 171 MFI and 15700 MFI, respectively. This molecule also displayed a hDC % positive in experiment [6] of 65.8%.

B4: Ab22 (antibody, human IgG1, V domains shown)
VH: EVQLVQSGAEVKKPGESLKISCKGSGYSFTTYWIGWVRQMPGKGLEWMGIIYPGDSDTRYSPSFQGQVTISADKSISTAYLQWSSLKASDTAMYYCARAGHYDGGHLGMDVWGQGTTVTVSS
VL: EIVMTQSPGTLSLSPGERATLSCRASQSVSSSYLAWYQQKPGQAPRLLIYGASSRATGIPDRFSGSGSGTDFTLTISRLEPEDFAVYYCQQDDRSPYTFGGGTKVEIK
notes: human IgG1
As to B4, the Kd in experiment [1] stood at 1.01 nM; in experiment [3], 0.34 nM; in experiment [4], 0.306 nM. In addition, the “Induction of CD86 & CD83 Human hDC plate (% CD83+CD86+ cells)” value in experiment [2] was 74.5%. The “Induction of CD86 & CD83 hDC solution (% CD83+CD86+ cells)” value in experiment [2] was 1.2%. Also, the MFI with mouse TREM2 on cells [5] came to 451 MFI; in the experiment with mouse TREM2 on cells [7], 110 MFI; with mouse TREM2 on cells [8] it was 12500 MFI. The molecule also showed a hDC % positive in experiment [6] of 76.9%.

B5: Ab45 (antibody, human IgG1, V domains shown)
VH: QVQLVQSGAEVKKPGASVKVSCKASGYTFTSYYMHWVRQAPGQGLEWMGIINPSGGSTSYAQKFQGRVTMTRDTSTSTVYMELSSLRSEDTAVYYCARGPGYTTALDYYYMDVWGKGTTVTVSS
VL: EIVMTQSPATLSVSPGERATLSCRASQSVSSNLAWYQQKPGQAPRLLIYGASTRATGIPARFSGSGSGTEFTLTISSLQSEDFAVYYCQQLDDWFTFGGGTKVEIK
notes: human IgG1
For the molecule B5, the Kd in experiment [1] is 0.654 nM; in experiment [4] it was 0.229 nM. In addition, the “Induction of CD86 & CD83 Human hDC plate (% CD83+CD86+ cells)” value in experiment [2] amounted to 65.5%. The “Induction of CD86 & CD83 hDC solution (% CD83+CD86+ cells)” value in experiment [2] was found to be 4.3%. Besides, the results for the MFI with mouse TREM2 on cells [5], with mouse TREM2 on cells [7] and in the experiment with mouse TREM2 on cells [8] were 652 MFI, 141 MFI and 16300 MFI, respectively. The same molecule registered a hDC % positive in experiment [6] of 78.8%.
